This is an account of results in PMC8584343, “Probing the Structural Dynamics of the Activation Gate of KcsA Using Homo-FRET Measurements” (International Journal of Molecular Sciences, 2021).

Data set [1] deals with the molecule itself. Nature of the data set: SDS-PAGE; oligomeric status of the purified protein checked by SDS-PAGE (13.5%).
Data set [2] concerns the molecule itself. Nature of the data set: FRET or BRET; homo-FRET among TMR dyes on C116 of different subunits, read by steady-state and time-resolved fluorescence anisotropy; detergent-solubilised protein, 6 µM (monomer based), 5 mM DDM, 200 mM KCl (also RbCl or NaCl), pH 3.5-7.0, 25 °C; D:P 0.05 to 0.60.

Usually stoichiometry N stands for the number of molecules, sites or subunits per partner or assembly.

B1: TMR-labeled G116C W26, 68, 87, 113F KcsA (full-length) (natural protein, S. lividans, UniProt P0A334 1-160, looked up)
chain: MPPMLSGLLARLVKLLLGRHGSALHFRAAGAATVLLVIVLLAGSYLAVLAERGAPGAQLITYPRALWFSVETATTVGYGDLYPVTLFGRLVAVVVMVAGITSFGLVTAALATFFVCREQERRGHFVRHSEKAAEEAYTRTTRALHERFDRLERMLDDNRR
modifications: tetramethylrhodamine-5-maleimide (TMR) conjugated to cysteine 116; final dye-to-protein molar ratio D:P 0.05 to 0.60, so not every subunit carries a dye
notes: KcsA potassium channel from S. lividans, full-length subunit, with four of the five Trp mutated to Phe (W67 left) and G116C for labelling; Homotetrameric channel; Plasmids pQE-60 and pQE-1 are named for G116C W67 and G116C WT; also called TMR-labeled G116C W67 KcsA; TMR conjugated G116C W67 KcsA; source: E. coli M15 (pRep4), purified (IMAC), labelled with tetramethylrhodamine-5-maleimide, …
With B1, the “stoichiometry N” value in data set [1] came out at 4.

B2: C-terminal truncated (Δ125) TMR-labeled G116C W67 KcsA (domain or fragment, S. lividans, UniProt P0A334 1-124, looked up)
chain: MPPMLSGLLARLVKLLLGRHGSALHFRAAGAATVLLVIVLLAGSYLAVLAERGAPGAQLITYPRALWFSVETATTVGYGDLYPVTLFGRLVAVVVMVAGITSFGLVTAALATFFVCREQERRGH
modifications: tetramethylrhodamine-5-maleimide (TMR) conjugated to cysteine 116; D:P = 0.60
notes: KcsA potassium channel from S. lividans after removal of the C-terminal domain (amino acids 125–160) by chymotrypsin; W67 background with G116C; The limit 124 follows from the stated removal of amino acids 125–160; If the His tag stood at the C-terminus it would be lost with the cleaved fragment; also called truncated protein; proteolytically cleaved TMR-labeled G116C W67 KcsA
As for B2, the binding result in data set [2] is given as “binds”.
